Source: patent US10738090B2, “Engineered microcompartment protein and related methods and systems of engineering bacterial systems for non-native protein expression and purification” (priority 2017, dated 2020)
No end group written: not given here.

Assays:
pathogens = conditions: cited from earlier work
E. coli BL21(DE3) cells = type: cell-based; conditions: for concentration showing significant anti-bacterial activity: BL21(DE3) E. coli
Method: Growth inhibition activity can be tested against E. coli BL21(DE3) cells. Overnight cultures of cells were diluted to 200 μL of an initial OD600 of 0.05-0.1 in LB medium. Diluted cultures were grown at 37° C., 1000 rpm in a PHMP-4 Microplate Shaker (Grant Instruments, Cambridge, England). Protein was added to the culture at an OD600 of 0.1-0.2. Growth measured by OD600 was monitored over time and were conducted in triplicate. TEV-digested material contained HB-Enc fusion protein (0.5 mg/mL) that was incubated with TEV protease (0.5 U/mL) overnight for 17 h at 4° C.

TEV protease = target: T1, TEV protease (Tobacco etch virus, UniProt P04517); type: biochemical; conditions: for extent of TEV protease digestion / release of HBCM2 peptide: exogenous TEV protease, overnight at 4° C., G4T linker; for release of HB peptide by TEV protease: GT linker instead of G4T linker between TEV site and N-terminus of Enc, SDS-PAGE
T1 construct: Tobacco etch virus protease (TEV protease)
Method: All purified constructs were digested by addition of exogenous TEV protease, followed by overnight incubation at 4° C. Products were resolved on a 16.5% Tris-Tricine gel (Bio-Rad).

[1] = Proteolysis of HB fusion constructs in C43(DE3) cell lysate (SDS-PAGE, anti-His Western blot); design: species or system E. coli
Method: In particular, in order to perform the testing, all DNA plasmids were transformed and expressed in C43(DE3) cells as described in Example 12, except that cells were grown in 25 mL of LB medium in 150-mL flasks. IPTG induction was conducted overnight for 17 h at 18° C. to enhance soluble protein expression. Cells were harvested and lysed also as described in Example 12.
To test for proteolysis in cell lysate, cells expressing the HB-Enc constructs from 25 mL of culture were harvested and resuspended in phosphate buffer (50 mM sodium phosphate pH 8.0, 500 mM NaCl) and 10 U/mL of DNaseI. Cells were lysed via a French Pressure cell at 14,000 psi and then centrifuged at 12,000 g, 4° C. for 25 min. The supernatant (soluble) fraction was collected and incubated at 4° C. overnight. Samples for SDS-PAGE analysis were collected immediately after lysis and after overnight incubation.
As controls, samples after BPER-II lysis were also prepared. Samples were resolved on an any-kDa SDS-PAGE gel (Bio-Rad) and stained with Coomassie blue. For Western blot analysis, samples were resolved on an any-kDa and blotted to a PVDF membrane using a Transblot Turbo System (Bio-Rad) at 2.5 A for 7 min. Samples were probed using a mouse anti-His-tag primary antibody and a rabbit anti-Mouse-HRP conjugated secondary antibody (both from Bio-Rad). HRP was detected on the membrane using chemiluminescence.

[2] = French press lysis without BPER-II, then overnight incubation at 4° C.
[3] = immediately after French press lysis

**Q.** Which bactericidal activity (pathogens) does the source give for Cecropin PR-39 here?
**A.** Its bactericidal activity is “high bactericidal activity”.

**Q.** What does the source list for “GNNRPVYIPQPRPPHPRI [native Ap peptide, Apidaecin Ia, reference compound]”?
**A.** concentration showing significant anti-bacterial activity (E. coli BL21(DE3) cells; chemically synthesized peptide): ≥ 100 µg/mL; bactericidal activity (pathogens): high bactericidal activity

**Q.** Which “concentration showing significant anti-bacterial activity” value (E. coli BL21(DE3) cells; chemically synthesized peptide) does the source give for “MKWKSFIKKLTKAAKKVVTTAKKPLIVENLYFQ [M-HBCM2-TEV]” here?
**A.** Its value is 2 µg/mL.

**Q.** And the MIC (E. coli BL21(DE3) cells; chemically synthesized peptide, E. coli BL21(DE3), FIG. 31 Panel B)?
**A.** The MIC was < 5 µg/mL.

B1: HB-EncK71^TEVK138^TEV-His: HBCM2 fused to N-terminus of T. maritima encapsulin; TEV sites after K71 and K138, His-tag; non-cage forming (protein)
chain: MKWKSFIKKLTKAAKKVVTTAKKPLIVENLYFQGGGGGTEFLKRSFAPLTEKQWQEIDNRAREIFKTQLYGRKFVDVEGPYGWEYAAHPLGEVEVLSDENEVVKWGLRKGGENLYFQGGGSLPLIELRATFTLDLWELDNLERGKPNVDLSSLEETVRKVAEFEDEVIFRGCEKSGVKGLLSFEERKGGGGGENLYFQGHHHHHHGGGGGIECGSTPKDLLEAIVRALSIFSKDGIEGPYTLVINTDRWINFLKEEAGHYPLEKRVEECLRGGKIITTPRIEDALVVSERGGDFKLILGQDLSIGYEDREKDAVRLFITETFTFQVVNPEALILLK
**Q.** Which “extent of TEV protease digestion / release of HBCM2 peptide” value (TEV protease) does the source give for B1 here?
**A.** The value was “apparent complete digestion”.

**Q.** And the “truncated products on expression (proteolysis)” value ([1]; C43(DE3) cells, anti-His-tag Western blot)?
**A.** Its value is “some truncated products”.

**Q.** And the “proteolysis in cell lysate” value [1, 2]?
**A.** Its value is “completely proteolyzed”.

**Q.** What about the “proteolysis in cell lysate” value [1, 3] of the same molecule?
**A.** Its value is “significantly degraded”.

**Q.** And the “growth inhibition of E. coli” value (E. coli BL21(DE3) cells; undigested fusion protein at 40 μg/mL)?
**A.** Its value is “did not inhibit the growth”.

B2: HB-EncK138^TEV-His: HBCM2, TEV site, G4T-linker fused to N-terminus of Enc; TEV site and His6-tag after K138; cage forming (protein)
chain: MKWKSFIKKLTKAAKKVVTTAKKPLIVENLYFQGGGGGTEFLKRSFAPLTEKQWQEIDNRAREIFKTQLYGRKFVDVEGPYGWEYAAHPLGEVEVLSDENEVVKWGLRKSLPLIELRATFTLDLWELDNLERGKPNVDLSSLEETVRKVAEFEDEVIFRGCEKSGVKGLLSFEERKGGGGGENLYFQGHHHHHHGGGGGIECGSTPKDLLEAIVRALSIFSKDGIEGPYTLVINTDRWINFLKEEAGHYPLEKRVEECLRGGKIITTPRIEDALVVSERGGDFKLILGQDLSIGYEDREKDAVRLFITETFTFQVVNPEALILLK
**Q.** For B2, which “proteolysis in cell lysate” value [1, 2] is on record?
**A.** Its value is “resistant to proteolysis”.

B3: HB-EncD60^TEVK138^TEV-His: HB-Enc fusion with TEV site after D60 plus TEV-His insertion after K138; cage forming (protein)
chain: MKWKSFIKKLTKAAKKVVTTAKKPLIVENLYFQGGGGGTEFLKRSFAPLTEKQWQEIDNRAREIFKTQLYGRKFVDVEGPYGWEYAAHPLGEVEVLSDGGENLYFQGGGENEVVKWGLRKSLPLIELRATFTLDLWELDNLERGKPNVDLSSLEETVRKVAEFEDEVIFRGCEKSGVKGLLSFEERKGGGGGENLYFQGHHHHHHGGGGGIECGSTPKDLLEAIVRALSIFSKDGIEGPYTLVINTDRWINFLKEEAGHYPLEKRVEECLRGGKIITTPRIEDALVVSERGGDFKLILGQDLSIGYEDREKDAVRLFITETFTFQVVNPEALILLK
**Q.** Which “proteolysis in cell lysate” value [1, 2] does the source give for B3 here?
**A.** The value was “resistant to proteolysis”.

B4: HB-EncV57^TEVK138^TEV-His with the shorter GT linker: HB-EncV57^TEVK138^TEV-His with a GT linker instead of the G4T linker (protein)
chain: MKWKSFIKKLTKAAKKVVTTAKKPLIVENLYFQGGTEFLKRSFAPLTEKQWQEIDNRAREIFKTQLYGRKFVDVEGPYGWEYAAHPLGEVEVGGENLYFQGGGLSDENEVVKWGLRKSLPLIELRATFTLDLWELDNLERGKPNVDLSSLEETVRKVAEFEDEVIFRGCEKSGVKGLLSFEERKGGGGGENLYFQGHHHHHHGGGGGIECGSTPKDLLEAIVRALSIFSKDGIEGPYTLVINTDRWINFLKEEAGHYPLEKRVEECLRGGKIITTPRIEDALVVSERGGDFKLILGQDLSIGYEDREKDAVRLFITETFTFQVVNPEALILLK
**Q.** For B4, which “release of HB peptide by TEV protease” value (TEV protease) is on record?
**A.** Its value is “did not result in detectable release of HB peptide”.

B5: HB-EncV57^TEVK138^TEV-His: HB-Enc fusion with TEV site after V57 plus TEV-His insertion after K138; cage forming (protein)
chain: MKWKSFIKKLTKAAKKVVTTAKKPLIVENLYFQGGGGGTEFLKRSFAPLTEKQWQEIDNRAREIFKTQLYGRKFVDVEGPYGWEYAAHPLGEVEVGGENLYFQGGGLSDENEVVKWGLRKSLPLIELRATFTLDLWELDNLERGKPNVDLSSLEETVRKVAEFEDEVIFRGCEKSGVKGLLSFEERKGGGGGENLYFQGHHHHHHGGGGGIECGSTPKDLLEAIVRALSIFSKDGIEGPYTLVINTDRWINFLKEEAGHYPLEKRVEECLRGGKIITTPRIEDALVVSERGGDFKLILGQDLSIGYEDREKDAVRLFITETFTFQVVNPEALILLK
**Q.** For B5, which “proteolysis in cell lysate” value [1, 2] is on record?
**A.** Its value is “resistant to proteolysis”.

B6: TEV protease: Tobacco etch virus protease, recognition sequence ENLYFQ/G; negative control alone (protein)
chain: GESLFKGPRDYNPISSTICHLTNESDGHTTSLYGIGFGPFIITNKHLFRRNNGTLLVQSLHGVFKVKNTTTLQQHLIDGRDMIIIRMPKDFPPFPQKLKFREPQREERICLVTTNFQTKSMSSMVSDTSCTFPSSDGIFWKHWIQTKDGQCGSPLVSTRDGFIVGIHSASNFTNTNNYFTSVPKNFMELLTNQEAQQWVSGWRLNADSVLWGGHKVFMSKPEEPFQPVKEATQLMNELVYSQ
**Q.** Which “anti-bacterial / growth inhibition activity” value (E. coli BL21(DE3) cells; E. coli BL21(DE3), concentration not given) does the source give for B6 here?
**A.** Its value is “no growth inhibition”.

B7: HB-EncD60^TEVK138^TEV-His with the shorter GT linker: HB-EncD60^TEVK138^TEV-His with a GT linker instead of the G4T linker (protein)
chain: MKWKSFIKKLTKAAKKVVTTAKKPLIVENLYFQGGTEFLKRSFAPLTEKQWQEIDNRAREIFKTQLYGRKFVDVEGPYGWEYAAHPLGEVEVLSDGGENLYFQGGGENEVVKWGLRKSLPLIELRATFTLDLWELDNLERGKPNVDLSSLEETVRKVAEFEDEVIFRGCEKSGVKGLLSFEERKGGGGGENLYFQGHHHHHHGGGGGIECGSTPKDLLEAIVRALSIFSKDGIEGPYTLVINTDRWINFLKEEAGHYPLEKRVEECLRGGKIITTPRIEDALVVSERGGDFKLILGQDLSIGYEDREKDAVRLFITETFTFQVVNPEALILLK
**Q.** Which “release of HB peptide by TEV protease” value (TEV protease) does the source give for B7 here?
**A.** The value was “did not result in detectable release of HB peptide”.

B8: HB-EncK71^TEV (protein)
chain: MKWKSFIKKLTKAAKKVVTTAKKPLIVENLYFQGGGGGTEFLKRSFAPLTEKQWQEIDNRAREIFKTQLYGRKFVDVEGPYGWEYAAHPLGEVEVLSDENEVVKWGLRKGGENLYFQGGGSLPLIELRATFTLDLWELDNLERGKPNVDLSSLEETVRKVAEFEDEVIFRGCEKSGVKGLLSFEERKIECGSTPKDLLEAIVRALSIFSKDGIEGPYTLVINTDRWINFLKEEAGHYPLEKRVEECLRGGKIITTPRIEDALVVSERGGDFKLILGQDLSIGYEDREKDAVRLFITETFTFQVVNPEALILLK
**Q.** What does the source list for B8?
**A.** extent of TEV protease digestion / release of HBCM2 peptide (TEV protease): apparent complete digestion; proteolysis in cell lysate [1, 2]: completely proteolyzed; proteolysis in cell lysate [1, 3]: significantly degraded

B9: HB-EncK138^TEV-His with the shorter GT linker: HB-EncK138^TEV-His with a GT linker between TEV site and N-terminus of Enc instead of G4T (protein)
chain: MKWKSFIKKLTKAAKKVVTTAKKPLIVENLYFQGGTEFLKRSFAPLTEKQWQEIDNRAREIFKTQLYGRKFVDVEGPYGWEYAAHPLGEVEVLSDENEVVKWGLRKSLPLIELRATFTLDLWELDNLERGKPNVDLSSLEETVRKVAEFEDEVIFRGCEKSGVKGLLSFEERKGGGGGENLYFQGHHHHHHGGGGGIECGSTPKDLLEAIVRALSIFSKDGIEGPYTLVINTDRWINFLKEEAGHYPLEKRVEECLRGGKIITTPRIEDALVVSERGGDFKLILGQDLSIGYEDREKDAVRLFITETFTFQVVNPEALILLK
**Q.** Which “release of HB peptide by TEV protease” value (TEV protease) does the source give for B9 here?
**A.** The value was “did not result in detectable release of HB peptide”.
